We go through two molecules from patent US7378397B2 (The Provost, Fellows and Scholars of the College of the …, priority 2000, dated 2008).

Common to all, as to assay type: biochemical, porcine
Data set [1] deals with T1, TRH-DE (Sus scrofa, UniProt A0A287AP33).
T1 construct: The inventor purified TRH-DE from porcine brain according to purification procedures previously published by Dr. K. Bauer; from tissue; host or cells: porcine brain (TRH-DE); bovine kidney (DPP-IV, gift from Dr. C. H. Williams)
Briefly: HPLC assay of peptide hydrolysis by TRH-DE (Glp production). Summed up:
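Porcine brain TRH-DE incubated with 1 mM peptide in 20 mM potassium phosphate, pH 7.5, 37 °C: screen with 0.8 μg enzyme for 18 h; rate microassays with 0.8-3.2 μg enzyme for 5 min to 18 h, in triplicate. Reactions stopped with TFA; Glp quantified by C-18 reverse-phase HPLC, UV 206 nm.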

The target in data set [2] is T1, TRH-DE. Briefly: discontinuous fluorometric TRH-DE assay with TRHAMC as substrate. The settings on record: measured indirectly, peptide treated as competitive inhibitor of TRHAMC hydrolysis; non-linear regression; mean±S.D. How it is done:
(§1) The inventor purified TRH-DE from porcine brain according to purification procedures previously published by Dr. K. Bauer, (Max-Planck-Institut, Hannover, Germany) (1). TRH-DE was purified almost 20,000 fold. […] Dipeptidyl peptidase IV (DPP-IV) (EC 3.4.14.5), purified from bovine kidney (7.7 mg ml^−1, specific activity of 17.5 U mg^−1 with Gly-ProAMC as substrate), was obtained as a gilt from Dr. C. H. Williams (Queen's University Belfast, U.K). (DPP-IV was used as the coupling enzyme used in the fluorometric assays).
(§2) One unit (U) of enzyme activity was defined as that amount catalysing the formation of one μmol of product in one minute under the standard conditions employed. […]
(§3) Determination of inhibitor constants for selected TRH-DE substrates—The HPLC assay lacked sufficient sensitivity for determining kinetic constants. […] This assay employs TRHAMC as the substrate and depends on the measurement of the fluorescence of 7-amino-4 methyl coumarin (AMC) produced as follows:
We have shown that the amount of AMC formed under these conditions is a quantitative measure of TRHAMC cleavage (23). Initial rates for the hydrolysis of TRHAMC by TRH-DE were determined in triplicate at five different substrate concentrations both in the absence and presence of at least three concentrations of peptide. […]

Substrate in data set [3]: Cc1cc(=O)oc2cc(NC(=O)[C@@H]3CCCN3C(=O)[C@H](Cc3c[nH]cn3)NC(=O)[C@@H]3CCC(=O)N3)ccc12
The data set is described as above. The settings on record: other: Michaelis constant of TRHAMC measured directly, discontinuous assay; pH 7.5; 37.0 °C. How it is done:
as §1
(§4) One unit (U) of enzyme activity was defined as that amount catalysing the formation of one μmol of product in one minute under the standard conditions employed. All incubations in the assays described below were carried out in 20 mM potassium phosphate buffer, pH 7.5, at 37° C.
as §3
(§5) We have shown that the amount of AMC formed under these conditions is a quantitative measure of TRHAMC cleavage (23). Initial rates for the hydrolysis of TRHAMC by TRH-DE were determined in triplicate at five different substrate concentrations both in the absence and presence of at least three concentrations of peptide. Ki values were obtained by non-linear regression analysis of the data collected. Determined in this way (i.e. by treating the peptide substrates as inhibitors of TRHAMC hydrolysis), these Ki values correspond to the Michaelis constants for those library peptides hydrolysed by TRH-DE (32).

Substrate in data set [4]: NC(=O)[C@@H]1CCCN1C(=O)[C@H](Cc1ccc(O)cc1)NC(=O)[C@@H]1CCC(=O)N1
Described as above. Conditions: other: measured indirectly, peptide treated as competitive inhibitor of TRHAMC hydrolysis; non-linear regression; mean±S.D.; pH 7.5; 37.0 °C. How it is done:
as §1, §4, §3, §5

Substrate in data set [5]: NC(=O)[C@@H]1CCCN1C(=O)[C@H](Cc1ccccc1)NC(=O)[C@@H]1CCC(=O)N1
The data set is described as above. The settings on record: other: measured indirectly, peptide treated as competitive inhibitor of TRHAMC hydrolysis; non-linear regression; mean±S.D.; pH 7.5; 37.0 °C. As to the method:
as §1, §4, §3, §5

Substrate in data set [6]: Cc1cc(=O)oc2cc(NC(=O)[C@@H]3CCCN3C(=O)[C@H](Cc3c[nH]cn3)NC(=O)[C@@H]3CCC(=O)N3)ccc12
The data set is described as follows: continuous coupled fluorometric TRH-DE assay (TRHAMC substrate, DPP-IV coupling enzyme). The settings on record: other: Michaelis constant of TRHAMC, non-linear regression, pH 7.5, 37.0 °C. As to the method: as §1, §2
The reaction was monitored continuously by measuring the increase in AMC fluorescence. A linear progress curve with no discernible lag period was observed when the reaction was monitored over a period of 10 minutes. […]
In a preliminary experiment, the peptides were screened for their ability to inhibit TRH-DE activity. The initial rate of TRHAMC hydrolysis by TRH-DE was measured by incubating 5 μM TRHAMC with 1.23 μg DPP-IV and 0.32 μg TRH-DE, both in the absence and presence of each library peptide (1 mM final concentration) under standard assay conditions (23). […]
Fluorescence measurements were made using a Perkin Elmer LS 50B Luminescence Spectrometer fitted with a thernostated cell holder. […]

With Glp-Thi-ProNH2, the Vmax on TRH-DE [1] (estimated from HPLC rates of hydrolysis using Vmax=vo{(Km+[S])/[S]}) is reported as 2.19 ± 0.16 (6) U mg^−1. The Rate of hydrolysis on TRH-DE [1] (peptide 1 mM, 37° C., Glp production by HPLC, mean±S.D.) is recorded as 2.12 ± 0.16 (6) U mg^−1. The Km on TRH-DE [2] came to 34 ± 6 µM.

B1: TRH-DE (Sus scrofa) (protein)
chain: MALDGERGEQEEEKKKKKKKKKRKKKKEEEGAKKSSSPFVATMGENDAALRAGGRGLSDPWADSVGVRPRTTERHITVHKRLVLAFAVSIVALLAVTMLAVLLSLRFDECGASIPPGADGGPAGFPARGGNESLPGSSRRDHHAGGDSSQPGAGREDTPETPSAQPPSEEEQEQWQPWTQLRLSGHLKPLHYNLMLTAFMENFTFSGEVNVEIACRNATRYVVLHASRVAVEKVQVAEDRVAGAVPVAGFFLYPQTQVLVVVLNRTLDAQRNYNLKIIYNALIENELLGFFRSSYVLHGERRFLGVTQFSPTHARKAFPCFDEPIYKATFKISIKHQATYLSLSNMPVETSVFEEDGWVTDHFSQTPLMSTYYLAWAICNFTYRETTTKSGVVVRLYARPDAIRRGSGDYALHITKRLIEFYEDYFKVPYSLPKLDLLAVPKHPYAAMENWGLSIFVEQRILLDPSVSSISYLLDVTMVIVHEICHQWFGDLVTPVWWEDVWLKEGFAHYFEFVGTDYLYPGWNMEKQRFLTDVLHEVMLLDGLASSHPVSQEVLRATDIDRVFDWIAYKKGAALIRMLANFMGHSVFQRGLQDYLTIHKYGNAARNDLWNTLSEALKRNGKYVNIQEVMDQWTLQMGYPVITIFGNTTAENRIIITQQHFIYDISAKAKPHELQNSSYLWQIPLTIVVGNRSHVSSEAIIWVSNKTEHHRITSLNKGSWLLGNINQTGYFRVNYDLRNWRLLIDQLIRNHEVLSVSNRAGLIDDAFSLARAGYLPQNIPLEIIRYLSEEKDFLPWHAASRALYPLDKLLDRMEKYNVFNEYILKQVATTYIKLGWPKNNFNGSLVQASYQHEELRREVIMLACSFGNKHCHQQASTLISDWISSNRNRIPLNVRDIVYCTGVSLLDEDVWEFIWMKFHSTTAISEKKILLEALTCSDDRNLLNRLLNLSLNSEVVLDQDAIDVIIHVARNPHGRDLAWKFFRDKWKILNTRYGEALFMNSKLISGVTEFLNTEGELKELKNFMKSYDGVAAASFSRAVETVEANVRWKMLYQDELFQWLGKALRH
notes: The inventor purified TRH-DE from porcine brain according to purification procedures previously published by Dr. K. Bauer; from tissue; host or cells: porcine brain (TRH-DE); bovine kidney (DPP-IV, gift from Dr. C. H. Williams)
For the molecule B1, the Km was 3.1 ± 0.5 µM in data set [3], 15 ± 3 (4) μM in data set [4], 55 ± 8 (3) μM in data set [5] and 3.5 ± 0.4 µM in data set [6]. The Vmax in data set [3] was found to be 0.11 µmol/min/mg; in data set [4] it was 0.67 µmol/min/mg; in data set [5], 1.64 µmol/min/mg. Also, the Vmax/Km came to 40000 µL/min/mg in data set [3], 50000 µL/min/mg in data set [4] and 30000 µL/min/mg in data set [5].
